These are literature values, as cited in patent US11474093B2, “Analysis method of protein-protein interaction and a screening method of protein-protein interaction inhibitors using a nanopore” (Korea Research Institute of Bioscience and Biotechnology, priority 2016, dated 2022).

Like-named read-outs stand apart in the source and are kept apart here.

The target of this series is MDM2 (Homo sapiens, UniProt Q00987).
MDM2, sequence (Q00987 whole entry): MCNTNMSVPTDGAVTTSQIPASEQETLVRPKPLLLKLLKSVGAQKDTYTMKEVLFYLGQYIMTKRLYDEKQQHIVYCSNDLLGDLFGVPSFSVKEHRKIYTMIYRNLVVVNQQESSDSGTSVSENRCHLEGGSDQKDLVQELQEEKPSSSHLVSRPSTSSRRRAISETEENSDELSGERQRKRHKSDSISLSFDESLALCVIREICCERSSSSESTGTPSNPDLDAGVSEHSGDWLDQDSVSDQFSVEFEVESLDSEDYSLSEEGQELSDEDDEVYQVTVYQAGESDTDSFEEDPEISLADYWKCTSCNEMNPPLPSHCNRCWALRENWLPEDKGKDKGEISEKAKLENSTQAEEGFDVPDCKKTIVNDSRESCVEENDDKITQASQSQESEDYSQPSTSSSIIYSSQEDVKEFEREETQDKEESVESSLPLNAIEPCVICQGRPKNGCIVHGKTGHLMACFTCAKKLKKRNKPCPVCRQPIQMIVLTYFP

On to “p53TAD: residues 1 to 73 of p53 transactivation domain (TAD)”, for which the Kd by setting is: (read-out: Kd of the interaction between MDM2 and p53TAD) 600 nM; (read-out: dissociation coefficient (Kd) with MDM2) approximately 600 nM.

In general, Kd refers to the concentration at which binding is half-saturated.
